In PMC3825817 (DNA repair, 2013):

B1: human DNA polymerase δ p12 subunit (natural protein, UniProt Q9HCU8 1-107, looked up)
chain: MGRKRLITDSYPVVKRREGPAGHSKGELAPELGEEPQPRDEEEAELELLRQFDLAWQYGPCTGITRLQRWCRAKQMGLEPPPEVWQVLKTHPGDPRFQCSLWHLYPL
B2: human DNA polymerase δ p68 subunit (natural protein, UniProt Q15054 1-466, looked up)
chain: MADQLYLENIDEFVTDQNKIVTYKWLSYTLGVHVNQAKQMLYDYVERKRKENSGAQLHVTYLVSGSLIQNGHSCHKVAVVREDKLEAVKSKLAVTASIHVYSIQKAMLKDSGPLFNTDYDILKSNLQNCSKFSAIQCAAAVPRAPAESSSSSKKFEQSHLHMSSETQANNELTTNGHGPPASKQVSQQPKGIMGMFASKAAAKTQETNKETKTEAKEVTNASAAGNKAPGKGNMMSNFFGKAAMNKFKVNLDSEQAVKEEKIVEQPTVSVTEPKLATPAGLKKSSKKAEPVKVLQKEKKRGKRVALSDDETKETENMRKKRRRIKLPESDSSEDEVFPDSPGAYEAESPSPPPPPSPPLEPVPKTEPEPPSVKSSSGENKRKRKRVLKSKTYLDGEGCIVTEKVYESESCTDSEEELNMKTSSVHRPPAMTVKKEPREERKGPKKGTAALGKANRQVSITGFFQRK
B3: human DNA polymerase δ p50 subunit (natural protein)
chain: not shown

Target: T1, human DNA polymerase δ p125 catalytic subunit (human, UniProt P28340 1-1107)
T1 sequence (looked up): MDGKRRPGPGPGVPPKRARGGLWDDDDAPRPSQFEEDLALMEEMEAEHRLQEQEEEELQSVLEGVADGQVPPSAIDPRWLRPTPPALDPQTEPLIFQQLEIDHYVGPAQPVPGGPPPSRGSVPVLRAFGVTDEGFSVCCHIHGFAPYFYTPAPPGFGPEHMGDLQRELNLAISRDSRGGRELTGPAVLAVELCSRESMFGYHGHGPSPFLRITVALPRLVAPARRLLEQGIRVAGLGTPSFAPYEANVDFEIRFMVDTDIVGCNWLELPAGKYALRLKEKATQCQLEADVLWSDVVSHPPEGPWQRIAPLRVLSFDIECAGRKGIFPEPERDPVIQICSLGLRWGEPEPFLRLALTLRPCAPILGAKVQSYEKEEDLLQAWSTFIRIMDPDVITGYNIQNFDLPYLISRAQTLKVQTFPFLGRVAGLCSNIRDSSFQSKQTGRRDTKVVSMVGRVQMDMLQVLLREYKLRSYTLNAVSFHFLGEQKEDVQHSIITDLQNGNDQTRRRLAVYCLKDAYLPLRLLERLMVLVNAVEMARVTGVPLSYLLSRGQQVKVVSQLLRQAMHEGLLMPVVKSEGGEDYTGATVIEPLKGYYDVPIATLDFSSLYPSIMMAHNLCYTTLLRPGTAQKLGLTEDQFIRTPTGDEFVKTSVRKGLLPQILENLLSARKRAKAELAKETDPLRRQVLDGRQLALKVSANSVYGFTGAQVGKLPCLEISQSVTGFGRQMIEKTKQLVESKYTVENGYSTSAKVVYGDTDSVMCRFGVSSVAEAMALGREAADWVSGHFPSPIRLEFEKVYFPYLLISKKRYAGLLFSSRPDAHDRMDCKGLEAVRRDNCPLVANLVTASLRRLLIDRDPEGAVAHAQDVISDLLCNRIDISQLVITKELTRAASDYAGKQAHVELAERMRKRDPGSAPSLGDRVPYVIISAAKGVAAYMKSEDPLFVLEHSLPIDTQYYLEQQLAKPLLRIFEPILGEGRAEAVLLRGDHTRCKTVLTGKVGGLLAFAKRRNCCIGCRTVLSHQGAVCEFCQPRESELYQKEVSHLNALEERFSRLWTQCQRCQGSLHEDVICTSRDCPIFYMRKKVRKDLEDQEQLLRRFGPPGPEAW
Assay: immunoaffinity co-purification, SDS-PAGE

Row | Binder | stoichiometry N
1 | B1 | ~1
2 | B2 | ~1
3 | B3 | ~1
